Experiment [1] addresses T1, recombinant human Trop-2-his protein (ACCESSION NO.: NP_002344.2, AA 1-274) (human, UniProt P09758 27-274).
T1 construct: range 27-274; also called recombinant human Trop-2 protein; recombinant human Trop-2 extracellular domain; not shown: his tag
T1 sequence (looked up): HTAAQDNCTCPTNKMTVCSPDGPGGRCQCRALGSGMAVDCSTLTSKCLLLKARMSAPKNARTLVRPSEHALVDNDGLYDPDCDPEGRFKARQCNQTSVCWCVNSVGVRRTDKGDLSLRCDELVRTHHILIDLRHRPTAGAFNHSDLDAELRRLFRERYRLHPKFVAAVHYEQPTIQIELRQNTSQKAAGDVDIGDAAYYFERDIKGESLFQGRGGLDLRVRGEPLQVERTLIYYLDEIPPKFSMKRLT
Nature of the experiment: BLI, antibody on AHC sensor, Trop-2-his 60 nM. The method, boiled down: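 Octet BLI: humanized antibodies at 4 μg/ml in PBS captured 120 s on anti-human IgG Fc (AHC) biosensors, then exposed to 60 nM Trop-2-his (AA 1-274) for 100 s association and 300 s dissociation. Blank-subtracted data fitted to 1:1 Langmuir model for kinetic constants.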

The target in experiment [2] is T2, human Trop-2 on the surface of cells (CHO/Trop-2 cells; BxPC-3 cells; NCI-N87 cells) (human, UniProt P09758 27-323).
T2 sequence (looked up): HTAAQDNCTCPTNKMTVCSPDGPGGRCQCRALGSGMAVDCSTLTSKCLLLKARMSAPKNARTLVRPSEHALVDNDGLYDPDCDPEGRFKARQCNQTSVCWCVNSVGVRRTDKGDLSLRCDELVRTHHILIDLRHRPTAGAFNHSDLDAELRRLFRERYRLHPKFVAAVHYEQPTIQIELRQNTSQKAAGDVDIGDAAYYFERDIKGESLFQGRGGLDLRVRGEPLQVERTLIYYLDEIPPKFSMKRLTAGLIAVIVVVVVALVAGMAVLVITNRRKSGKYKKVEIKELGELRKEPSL
Nature of the experiment: cell-based or functional assay.

Experiment [3] addresses T3, recombinant mouse Trop-2-his protein (Cat.: 50922-M08H, Beijing Yiqiao Shenzhou Science and Technology Co., … (mouse, UniProt Q8BGV3 25-270)).
T3 construct: Bought protein; not shown: his tag
T3 sequence (looked up): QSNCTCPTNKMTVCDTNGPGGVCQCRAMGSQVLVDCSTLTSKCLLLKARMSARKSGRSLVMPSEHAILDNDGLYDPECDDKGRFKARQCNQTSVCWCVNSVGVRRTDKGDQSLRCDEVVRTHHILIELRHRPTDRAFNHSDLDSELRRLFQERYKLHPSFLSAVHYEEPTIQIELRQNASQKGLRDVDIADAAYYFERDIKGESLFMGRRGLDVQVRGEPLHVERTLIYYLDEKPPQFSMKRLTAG
Nature of the experiment: ELISA, coated mouse Trop-2-his 1 µg/ml. The method, then:
Washed with PBS 3 times, the plates were blocked with the added 5% BSA PBS at 37° C. for 60 min, and then washed 3 times with PBST. Different concentrations of h23-12 (serial dilutions of 14 concentrations obtained through 3-fold serially diluting a solution with an initial concentration of 10 μg/ml), h4-3 (serial dilutions of 12 concentrations obtained through 3-fold serially diluting a solution with an initial concentration of 3 μg/ml), and Sacituzumab (serial dilutions of 12 concentrations obtained through 3-fold serially diluting a solution with an initial concentration of 3 μg/ml) were added into the plates, with each concentration provided in a parallel well. The plates were incubated at 37° C. for 60 min, and then were washed 4 times with PBST. 1:5000 dilution of H1RP-anti-human Fc (Cat.: 109-035-098, Jackson ImmunoResearch) was added into the plates for incubation at 37° C. for 30 min. Afterwards, the plates were washed with PBST 4 times, and TMB substrate was added for color development at 37° C. for 10 min. Then 2M HCl was added to stop reaction; and absorbances at 450 nm and at 630 nm (as reference wavelength) were read, and A450 nm-630 nm values of the wells in the plates were recorded.

The target of experiment [4] is T1, recombinant human Trop-2-his protein …. Nature of the experiment: BLI, naked antibody on AHC sensor, Trop-2-his 60 nM, 300 s binding. The method, then: Affinities of the antibodies were determined by an assay including capturing Fc fragments of the antibodies with anti-human IgG Fc capture (AHC) biosensors using Octet QKe system instrument from Fortebio.
For the assay, SN38-labeled antibodies prepared as described above: h23-12-SN38, ch4-3-SN38, ch11-4-SN38, and positive control antibody Sacituzumab-SN38, as well as naked antibodies h23-12, ch4-3, ch11-4, and positive control antibody Sacituzumab were diluted to 4 μg/ml with PBS and allowed to flow through the surface of an AHC biosensor (Cat.: 18-0015, PALL) for 120 s. Recombinant human Trop-2-his protein (ACCESSION NO.: NP_002344.2, AA 1-274) was used as a mobile phase, and its concentration was 60 nM. The binding time was 300 s and the dissociation time was 300 s. When the assay was finished, data from which the response value of blank control had been deducted were fitted to a 1:1 Langmuir binding model using software, and then kinetic constants for antigen-antibody binding were calculated.

The target of experiment [5] is T2, human Trop-2 on the surface of cells …. Briefly: cell-based or functional assay. The source holds these as a separate data set.

B1: Sacituzumab (antibody, human IgG1, kappa, V domains shown)
VH: QVQLQQSGSELKKPGASVKVSCKASGYTFTNYGMNWVKQAPGQGLKWMGWINTYTGEPTYTDDFKGRFAFSLDTSVSTAYLQISSLKADDTAVYFCARGGFGSSYWYFDVWGQGSLVTVSS
VL: DIQLTQSPSSLSASVGDRVSITCKASQDVSIAVAWYQQKPGKAPKLLIYSASYRYTGVPDRFSGSGSGTDFTLTISSLQPEDFAVYYCQQHYITPLTFGAGTKVEIKR
notes: expressed in HEK293; also called control antibody Sacituzumab; Saituzumab
B1: the Kd in experiment [1] stood at 0.723 nM; in experiment [4], 0.583 nM. Further, in experiment [2], the “Internalization percentage, 1 h, BXPC-3 cells, FACS” value was found to be 37.4%. In addition, the binding result in experiment [3] is given as “no binding (tested: up to 3 µg/ml)”. In experiment [5], the “Internalization percentage, 1 h, NCI-N87 cells, FACS” value turned out to be 49.3%.

B2: h23-12-25 (antibody, human IgG1, kappa, V domains shown)
VH: QVQLVQSGAEVKKPGASVKVSCKASGYTFTSYWMHWVRQAPGQGLEWMGEITPSDNYGSYNQKFKGRVTITRDTSTSTAYMELSSLRSEDTAVYYCARGHGNYVSFDYWGQGTLVTVSS
VL: DIQMTQSPSSLSASVGDRVTITCRASQDISNYLNWYQQKPGKAPKLLIYYTSRLESGVPSRFSGSGSGTDFTLTISSLQPEDFATYFCQQGYTLPPYTFGQGTKLEIKR
notes: also called h32-12
For B2, the Kd in experiment [1] was 0.502 nM; in experiment [4], 0.507 nM. The “Internalization percentage, 1 h, BXPC-3 cells, FACS” value in experiment [2] was determined as 32.4%. Moreover, the binding result in experiment [3] is recorded as “no binding (tested: up to 10 µg/ml)”. In addition, in experiment [5], the “Internalization percentage, 1 h, NCI-N87 cells, FACS” value was 54%.
